# Results as given in the supplement of paper PMC10567573.
# B1: SASS6 (parent)
# chain: QKELQDVGQSLRIKEQEVCKLQEQ
# Variants of: B1
# Assay: protein stability index of a GFP-peptide fusion (GPS, HEK-293T) (PSI 1-6); higher = more stable
# Conditions: c terminus: a fixed tail appended
# 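Further: lentivirally expressed fusions sorted by FACS into six bins by GFP to DsRed ratio, PSI derived from sequencing read proportions per bin multiplied by bin number.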
row,Variant,protein stability index
1,QCELQDVGQSLRIKEQEVCKLQEQ [K2C],5.29
2,QDELQDVGQSLRIKEQEVCKLQEQ [K2D],5.26
3,QEELQDVGQSLRIKEQEVCKLQEQ [K2E],5.48
4,QFELQDVGQSLRIKEQEVCKLQEQ [K2F],4.02
5,QGELQDVGQSLRIKEQEVCKLQEQ [K2G],4.65
6,QHELQDVGQSLRIKEQEVCKLQEQ [K2H],5.46
7,QIELQDVGQSLRIKEQEVCKLQEQ [K2I],4.88
8,QLELQDVGQSLRIKEQEVCKLQEQ [K2L],4.97
9,QMELQDVGQSLRIKEQEVCKLQEQ [K2M],5.1
10,QPELQDVGQSLRIKEQEVCKLQEQ [K2P],4.2
11,QSELQDVGQSLRIKEQEVCKLQEQ [K2S],5.43
12,QTELQDVGQSLRIKEQEVCKLQEQ [K2T],5.34
13,QYELQDVGQSLRIKEQEVCKLQEQ [K2Y],4.98
14,QKALQDVGQSLRIKEQEVCKLQEQ [E3A],4.92
15,QKCLQDVGQSLRIKEQEVCKLQEQ [E3C],4.83
16,QKDLQDVGQSLRIKEQEVCKLQEQ [E3D],5.34
17,QKFLQDVGQSLRIKEQEVCKLQEQ [E3F],3.29
18,QKGLQDVGQSLRIKEQEVCKLQEQ [E3G],4.68
19,QKHLQDVGQSLRIKEQEVCKLQEQ [E3H],4.39
20,QKILQDVGQSLRIKEQEVCKLQEQ [E3I],4.37
21,QKKLQDVGQSLRIKEQEVCKLQEQ [E3K],4.63
22,QKLLQDVGQSLRIKEQEVCKLQEQ [E3L],4.92
23,QKMLQDVGQSLRIKEQEVCKLQEQ [E3M],4.02
24,QKNLQDVGQSLRIKEQEVCKLQEQ [E3N],4.88

row,Variant,protein stability index
1,QKPLQDVGQSLRIKEQEVCKLQEQ [E3P],3.71
2,QKQLQDVGQSLRIKEQEVCKLQEQ [E3Q],4.68
3,QKRLQDVGQSLRIKEQEVCKLQEQ [E3R],5.25
4,QKSLQDVGQSLRIKEQEVCKLQEQ [E3S],5.1
5,QKTLQDVGQSLRIKEQEVCKLQEQ [E3T],5.08
6,QKVLQDVGQSLRIKEQEVCKLQEQ [E3V],4.52
7,QKWLQDVGQSLRIKEQEVCKLQEQ [E3W],3.84
8,QKYLQDVGQSLRIKEQEVCKLQEQ [E3Y],4.4
9,QKEAQDVGQSLRIKEQEVCKLQEQ [L4A],5.25
10,QKECQDVGQSLRIKEQEVCKLQEQ [L4C],4.06
11,QKEDQDVGQSLRIKEQEVCKLQEQ [L4D],5.57
12,QKEFQDVGQSLRIKEQEVCKLQEQ [L4F],5.11
13,QKEGQDVGQSLRIKEQEVCKLQEQ [L4G],5.59
14,QKEHQDVGQSLRIKEQEVCKLQEQ [L4H],5.68
15,QKEIQDVGQSLRIKEQEVCKLQEQ [L4I],5.34
16,QKEKQDVGQSLRIKEQEVCKLQEQ [L4K],4.87
17,QKEMQDVGQSLRIKEQEVCKLQEQ [L4M],3.98
18,QKENQDVGQSLRIKEQEVCKLQEQ [L4N],5.1
19,QKEPQDVGQSLRIKEQEVCKLQEQ [L4P],5.34
20,QKEQQDVGQSLRIKEQEVCKLQEQ [L4Q],4.24
21,QKERQDVGQSLRIKEQEVCKLQEQ [L4R],4.96
22,QKESQDVGQSLRIKEQEVCKLQEQ [L4S],5.41
23,QKETQDVGQSLRIKEQEVCKLQEQ [L4T],5.23
24,QKEVQDVGQSLRIKEQEVCKLQEQ [L4V],5.28

row,Variant,protein stability index
1,QKEWQDVGQSLRIKEQEVCKLQEQ [L4W],4.82
2,QKEYQDVGQSLRIKEQEVCKLQEQ [L4Y],4.98
3,QKELCDVGQSLRIKEQEVCKLQEQ [Q5C],5.7
4,QKELDDVGQSLRIKEQEVCKLQEQ [Q5D],5.37
5,QKELFDVGQSLRIKEQEVCKLQEQ [Q5F],4.27
6,QKELGDVGQSLRIKEQEVCKLQEQ [Q5G],5.69
7,QKELHDVGQSLRIKEQEVCKLQEQ [Q5H],4.91
8,QKELIDVGQSLRIKEQEVCKLQEQ [Q5I],5.02
9,QKELKDVGQSLRIKEQEVCKLQEQ [Q5K],5.7
10,QKELLDVGQSLRIKEQEVCKLQEQ [Q5L],2.94
11,QKELMDVGQSLRIKEQEVCKLQEQ [Q5M],5.16
12,QKELNDVGQSLRIKEQEVCKLQEQ [Q5N],5.3
13,QKELRDVGQSLRIKEQEVCKLQEQ [Q5R],4.41
14,QKELSDVGQSLRIKEQEVCKLQEQ [Q5S],5.16
15,QKELTDVGQSLRIKEQEVCKLQEQ [Q5T],5.41
16,QKELVDVGQSLRIKEQEVCKLQEQ [Q5V],5.13
17,QKELWDVGQSLRIKEQEVCKLQEQ [Q5W],4.79
18,QKELYDVGQSLRIKEQEVCKLQEQ [Q5Y],4.32
19,QKELQAVGQSLRIKEQEVCKLQEQ [D6A],5.17
20,QKELQEVGQSLRIKEQEVCKLQEQ [D6E],5.05
21,QKELQFVGQSLRIKEQEVCKLQEQ [D6F],3.81
22,QKELQGVGQSLRIKEQEVCKLQEQ [D6G],5
23,QKELQHVGQSLRIKEQEVCKLQEQ [D6H],4.62
24,QKELQKVGQSLRIKEQEVCKLQEQ [D6K],5.23

row,Variant,protein stability index
1,QKELQLVGQSLRIKEQEVCKLQEQ [D6L],4.14
2,QKELQMVGQSLRIKEQEVCKLQEQ [D6M],5.02
3,QKELQNVGQSLRIKEQEVCKLQEQ [D6N],4.9
4,QKELQPVGQSLRIKEQEVCKLQEQ [D6P],5.26
5,QKELQQVGQSLRIKEQEVCKLQEQ [D6Q],5.31
6,QKELQSVGQSLRIKEQEVCKLQEQ [D6S],4.91
7,QKELQTVGQSLRIKEQEVCKLQEQ [D6T],4.74
8,QKELQVVGQSLRIKEQEVCKLQEQ [D6V],4.46
9,QKELQYVGQSLRIKEQEVCKLQEQ [D6Y],4.58
10,QKELQDAGQSLRIKEQEVCKLQEQ [V7A],5.19
11,QKELQDCGQSLRIKEQEVCKLQEQ [V7C],3.36
12,QKELQDDGQSLRIKEQEVCKLQEQ [V7D],5.71
13,QKELQDEGQSLRIKEQEVCKLQEQ [V7E],5.11
14,QKELQDFGQSLRIKEQEVCKLQEQ [V7F],4.73
15,QKELQDGGQSLRIKEQEVCKLQEQ [V7G],5.41
16,QKELQDHGQSLRIKEQEVCKLQEQ [V7H],4.72
17,QKELQDIGQSLRIKEQEVCKLQEQ [V7I],5.05
18,QKELQDKGQSLRIKEQEVCKLQEQ [V7K],5.16
19,QKELQDLGQSLRIKEQEVCKLQEQ [V7L],5.14
20,QKELQDMGQSLRIKEQEVCKLQEQ [V7M],3.42
21,QKELQDNGQSLRIKEQEVCKLQEQ [V7N],4.92
22,QKELQDPGQSLRIKEQEVCKLQEQ [V7P],4.8
